Changes are numbered by the printed parent chain.
Columns and labels:
[1] = biological target: T1, gp7 (Bacillus thuringiensis phage GIL01) (UniProt Q7WSG2); experiment: EMSA; settings: SPR: 25 mM Tris-HCl pH 7.4, 140 mM NaCl, 5 mM EDTA, 2 mM DTT, 0.1 mg/ml BSA, 0.005% P20, 25 C; EMSA and footprinting buffers as in cited work
T1 sequence: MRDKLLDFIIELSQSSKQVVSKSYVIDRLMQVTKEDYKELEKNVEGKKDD

gp6 K38A = biological target: T2, gp6 K38A (Bacillus thuringiensis phage GIL01, UniProt Q5ILC6 1-66, K38A); experiment: SPR; 2.34-150 nM; SPR: 25 mM Tris-HCl pH 7.4, 140 mM NaCl, 5 mM EDTA, 2 mM DTT, 0.1 mg/ml BSA, 0.005% P20, 25 C; EMSA and footprinting buffers as in cited work; settings: protein: recombinant; tags: N-terminal His6 + thrombin site; chain copies: 2; label: 3'-biotin-TEG on S1 capture oligo; 36 bp duplex, 5' overhang 15 nt annealed to immobilized S1 (S39)
T2 sequence: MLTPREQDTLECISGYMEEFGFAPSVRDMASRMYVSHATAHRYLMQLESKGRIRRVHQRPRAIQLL

gp6 [2] = biological target: T3, gp6 (Bacillus thuringiensis phage GIL01, UniProt Q5ILC6); experiment: SPR; gp6 2.34-150 nM (Fig. 6D); SPR: 25 mM Tris-HCl pH 7.4, 140 mM NaCl, 5 mM EDTA, 2 mM DTT, 0.1 mg/ml BSA, 0.005% P20, 25 C; EMSA and footprinting buffers as in cited work; settings: protein: recombinant; tags: N-terminal His6 + thrombin site; chain copies: 2; label: 3'-biotin-TEG on S1 capture oligo; 36 bp duplex, 5' overhang 15 nt annealed to immobilized S1 (S39)
T3 sequence: T2 sequence with A38K

gp6 [3] = biological target: T3, gp6; experiment: SPR; SPR: 25 mM Tris-HCl pH 7.4, 140 mM NaCl, 5 mM EDTA, 2 mM DTT, 0.1 mg/ml BSA, 0.005% P20, 25 C; EMSA and footprinting buffers as in cited work; settings: protein: recombinant, tags: N-terminal His6 + thrombin site, chain copies: 2, label: 3'-biotin-TEG on S1 capture oligo, 5' overhang 15 nt annealed to immobilized S1 (S39)

TGTTGAACAAGGAATAGTAGAAAAGGACTAGCAAAGTTGCTAGTCTTTTTTATTTGTCCAAAATGACACACGTGTGACGTTATGCGGAACACTCGTTCGTATTATAGTATACATATAGCGAACAAACATTCGATAAGGAGTGTGACAAAGTGGATGCTTTAACGGAACTAATCATAGCTAACAATAAAGTGGAAATGCTT (double strand) [P3 fragment with dinBox2 and dinBox3 (EMSA7/EMSA10)]
binding [1]: no binding

B1: B23_Swt (gp6 site) (dsDNA)
DNA 1: GTTACTACTCGAGCGATTTGTCCAAAATGACACACGTGTGACGTTATGCGG
DNA 2: CCGCATAACGTCACACGTGTGTCATTTTGGACAAAT
binding result (gp6 K38A): no binding | binding result (gp6 [2]): binds

B2: B23_Smns (triple mutant gp6 site) (dsDNA)
DNA 1: B1 DNA 1 with G29T, A32C, G38A
DNA 2: B1 DNA 2 with C14T, T20G, C23A
binding result (gp6 [3]; 36 bp duplex): no binding

B3: B23_Lwt (-35, dinBox2, dinBox3) (dsDNA)
DNA 1: GTTACTACTCGAGCGATTTGTCCAAAATGACACACGTGTGACGTTATGCGGAACACTCGTTCGTATTATAGTATACATATAGCGAACAAACATTCGATAAGGAG
DNA 2: CTCCTTATCGAATGTTTGTTCGCTATATGTATACTATAATACGAACGAGTGTTCCGCATAACGTCACACGTGTGTCATTTTGGACAAAT
binding result (gp6 [3]; 89 bp duplex): binds
